{"source": "paper doi:10.1101/2025.05.04.652084", "key": {"[1]": {"target": "taxol-stabilized porcine brain GDP-microtubules (porcine) (UniProt P02550)", "sequence (P02550 46-451)": "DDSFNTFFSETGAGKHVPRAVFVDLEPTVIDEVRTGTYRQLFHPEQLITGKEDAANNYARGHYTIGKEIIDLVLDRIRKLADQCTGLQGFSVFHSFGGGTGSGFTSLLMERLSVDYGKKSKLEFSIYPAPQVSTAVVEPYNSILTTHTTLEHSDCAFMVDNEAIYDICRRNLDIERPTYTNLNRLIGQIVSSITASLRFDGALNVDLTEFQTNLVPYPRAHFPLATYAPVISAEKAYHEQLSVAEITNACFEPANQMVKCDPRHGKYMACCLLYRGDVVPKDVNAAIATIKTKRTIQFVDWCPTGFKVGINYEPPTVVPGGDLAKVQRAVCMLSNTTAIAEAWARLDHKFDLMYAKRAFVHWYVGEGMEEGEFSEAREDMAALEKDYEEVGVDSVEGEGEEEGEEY"}, "[2]": {"target": "taxol-stabilized porcine brain GDP-microtubules (porcine) (UniProt P02550)", "remark": "listed apart in the source"}}}
{"substance": "GcKIF5A (enzyme)", "values": [{"measurement": "K (1/2,MT) of the microtubule-stimulated ATPase activity", "setting": "[1]", "result": 4.2, "unit": "µM"}, {"measurement": "microtubule detachment rate under load", "setting": "[2]", "result": 3.9, "unit": "s⁻¹"}]}
{"substance": "MmKIF5A (from UniProt P33175 1-1027) (enzyme)", "values": [{"measurement": "K (1/2,MT) of the microtubule-stimulated ATPase activity", "setting": "[1]", "result": 2.2, "unit": "µM"}, {"measurement": "microtubule detachment rate under load", "setting": "[2]", "result": 1.3, "unit": "s⁻¹"}]}
